We go through ten sequences from the DeepSol protein solubility set.

This data set can be described thus: soluble on expression in E. coli; label from the status in PepcDB or PDB records.
On to “GPISEFPVDFHYGVRVDVTLLSKIRRVNEHIKSATKTGVVQVHGSACTPTLSVLSSVGTAGVLGMRIKNALTPLVGHTEGSGDVSFSFRNTSVGSGFTHTRELFGANVLDAGIAFYRKGEACDTGAQPQFVRTTISYGDNLTSTVHKSVVDQKGILPFHDRMEAGGRTTRLMLCGKTGAFLLKWLRQQKTKEDQTVTVSVSETLSIVTFSLGGVSKIIDFKPETKPVSGWDGLKGKKSVDVGVVHTDALSRVSLESLIAALRMCKVPGWFTPGLIWHSNEILEVEGVPTGCQSGDVKLSVLLLEVNRSV”, for which the “soluble on expression in E. coli” value is “soluble”.

For the sequence “GPLGSMKLLVVDDSSTMRRIIKNTLSRLGYEDVLEAEHGVEAWEKLDANADTKVLITDWNMPEMNGLDLVKKVRSDSRFKEIPIIMITTEGGKAEVITALKAGVNNYIVKPFTPQVLKEKLEVVLGTND”, the “soluble on expression in E. coli” value is on record as “soluble”.

Consider “GPLGSSIMKILLIGDSGVGKSCLLVRFVEDKFNPSFITTIGIDFKIKTVDINGKKVKLQLWDTAGQERFRTITTAYYRGAMGIILVYDVTDERTFTNIKQWFKTVNEHANDEAQLLLVGNKSDMETRVVTADQGEALAKELGIPFIESSAKNDDNVNEIFFTLAKLIQEKIDSN”, for which the “soluble on expression in E. coli” value is on record as “soluble”.

Consider “GPLQVSNARLLFPISMPEDEGVVRLVVNNTDESDLQVAVVSLPSFVSLDDRAFRLQAREPRELNLSLAVPRNMPPGMKDEPLVLEVTSPETGKKAVDSVMVSLPLVDNFPALTAAQTGVMELSTYLDMGQLDGETTKAAIEIRNVGAGPLRLHSVTTRNPALTAVPDRTEIKPGGSTLLRIAVDPQVMKAEGWQSIAADISIICNDPQAPLRRIKVKAEL”, for which the “soluble on expression in E. coli” value was “soluble”.

For the sequence “GPPTRRSDFRVLVSGLPPSGSWQDLKDHMREAGDVCYADVQKDGMGMVEYLRKEDMEYALRKLDDTKFRSHEGETSYIRVYPERS”, the “soluble on expression in E. coli” value is on record as “soluble”.

Regarding “GPVDNNNNNGLKNSTEPIYAKVNKKKTGQVASPEEPIYTQVAKKVNAKIDRLNQIASGLGGVGQAAGFPLKRHDKVDDLSKVGLSASPEPIYATIDDLGGPFPLKRHDKVDDLSKVGRSRNQELA”, the “soluble on expression in E. coli” value is “soluble”.

With “GPYATEVELREMVDIAQEHGIVEIEERRMIQSVFDLASTTVRQVMVPRPEMIWIESGKTAGQATALCVRSGHSRIPVIGENVDDIIGIVYLKDLVQKTYYATDGGKSVLVDEVMREATFVPDSKSLDALLQEMQEDHKHIAILVDEYGGVAGLISIEDILEEIVGEIADEYDAREVAPIEKIGDRTYRVVSRL”, the “soluble on expression in E. coli” value is reported as “not soluble”.

“GPYLVIVEQPKQRGFRFRYGCEGPSHGGLPGASSEKGRKTYPTVKICNYEGPAKIEVDLVTHSDPPRAHAHSLVGKQCSELGICAVSVGPKDMTAQFNNLGVLHVTKKNMMGTMIQKLQRQRLRSRPQGLTEAEQRELEQEAKELKKVMDLSIVRLRFSAFLRDSDGSFSLPLKPVISQPIHDSKSPGASNLKISRMDKTAGSVRGGDEVYLLCDKVQKDDIEVRFYEDDENGWQAFGDFSPTDVHKQYAIVFRTPPYHKMKIERPVTVFLQLKRKRGGDVSDSKQFTYYPLV”: the “soluble on expression in E. coli” value is listed as “soluble”.

Consider “GQANHPTAAVVTEKQQMLEQHLQDVRKRVQDLEQKMKVVENLQDDFDFNYKTLKSQGDMQDLNGNNQSVTRQKMQQLEQMLTALDQMRRSIVSELAGLLSAMEYVQKTLTDEELADWKRRQQIACIGGPPNICLDRLENWITSLAESQLQTRQQIKKLEELQQKVSYKGDPIVQHRPMLEERIVELFRNLMKSAFVVERQPCMPMHPDRPLVIKTGVQFTTKVRLLVKFPELNYQLKIKVCIDKDSGDVAALRGSRKFNILGTNTKVMNMEESNNGSLSAEFKHLTLREQRCGNGGRANCDASLIVTEELHLITFETEVYHQGLKIDLETHSLPVVVISNICQMPNAWASILWYNMLTNNPKNVNFFTKPPIGTWDQVAEVLSWQFSSTTKRGLSIEQLTTLAEKLLGPGVNYSGCQITWAKFCKENMAGKGFSFWVWLDNIIDLVKKYILALWNEGYIMGFISKERERAILSTKPPGTFLLRFSESSKEGGVTFTWVEKDISGKTQIQSVEPYTKQQLNNMSFAEIIMGYKIMDATNILVSPLVYLYPDIPKEEAFGKYCR”, for which the “soluble on expression in E. coli” value is given as “soluble”.

Consider “GQYKIQIFEKGDFSGQMYETTEDCPSIMEQFHMREIHSCKVLEGVWIFYELPNYRGRQYLLDKKEYRKPIDWGAASPAVQSFRRIVE”, for which the “soluble on expression in E. coli” value is “soluble”.
